Legend:
[1] = molecular target: T1, Human interleukin-18 (recombinant human IL-18) (human, UniProt Q14116 37-193); experiment: SPR, Biacore 3000, antibody captured on Protein A, 25 C
T1 construct: also called hIL-18
T1 sequence: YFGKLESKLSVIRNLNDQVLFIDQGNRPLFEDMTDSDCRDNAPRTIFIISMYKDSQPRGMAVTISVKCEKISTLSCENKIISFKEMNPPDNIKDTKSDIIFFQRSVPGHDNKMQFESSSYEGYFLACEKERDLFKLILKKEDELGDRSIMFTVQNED
Procedure: Biacore™ kinetic analysis of the humanised 2C10 antibodies was carried out on a Biacore™ 3000 instrument using Protein A capture of the antibodies in HBS-EP buffer (Biacore™). Briefly, Protein A was immobilised on a CM5 chip by primary amine coupling, using manufacturers recommended protocol, to densities around 2000-4000 resonance units (RU's). Humanised antibody was then passed over the Protein A surface and captured to levels of around 200-500 RU's, after a period of stabilisation, IL-18 (human or Rhesus) was passed over the captured antibody surface at defined concentrations and binding sensorgrams were obtained. […] All curves were double referenced against a buffer injection instead of IL-18 and the data was fitted to the 1:1 binding model using the global fit parameters in BiaEval 4.1. Off-rate ranking experiments were set up using the same Protein A capture method, however, only a single concentration of IL-18 was used (10 nM). Whilst the data was fitted using the same binding model as the kinetic analysis, since only one concentration of analyte was used on the off-rate is reported, this value is useful for ranking rather than giving an exact kinetic measurement and was used as a way of selecting which antibodies would be further investigated. […]

[2] = molecular target: T2, Rhesus IL-18 (rhesus (rhesus/cynomolgus)); experiment: as above
T2 construct: also called Rhesus/Cynomolgus IL-18; rhesus/cynomolgus IL-18
Procedure: Biacore™ kinetic analysis of the humanised 2C10 antibodies was carried out on a Biacore™ 3000 instrument using Protein A capture of the antibodies in HBS-EP buffer (Biacore™). Briefly, Protein A was immobilised on a CM5 chip by primary amine coupling, using manufacturers recommended protocol, to densities around 2000-4000 resonance units (RU's). Humanised antibody was then passed over the Protein A surface and captured to levels of around 200-500 RU's, after a period of stabilisation, IL-18 (human or Rhesus) was passed over the captured antibody surface at defined concentrations and binding sensorgrams were obtained. […] All curves were double referenced against a buffer injection instead of IL-18 and the data was fitted to the 1:1 binding model using the global fit parameters in BiaEval 4.1. Off-rate ranking experiments were set up using the same Protein A capture method, however, only a single concentration of IL-18 was used (10 nM). Whilst the data was fitted using the same binding model as the kinetic analysis, since only one concentration of analyte was used on the off-rate is reported, this value is useful for ranking rather than giving an exact kinetic measurement and was used as a way of selecting which antibodies would be further investigated.
Based upon these observations selected antibodies were investigated in greater detail for binding to human and Rhesus IL-18 at 37° C. The data shown in Table 4b for human IL-18 is the mean (and standard deviation) of six separate determinations.

[3] = molecular target: T1, Human interleukin-18 (recombinant human …); experiment: SPR, Biacore T100, antibody captured on Protein A, 25 C
Procedure: (§1) The methodology was basically the same as for the method used in Example 4a above; Protein A was immobilised on a CM5 chip at densities of between 2000-6000 RU's by primary amine coupling. Runs were carried out in HBS-EP (Biacore™). The anti-IL-18 antibodies were captured to densities of between 100-500 RUs, human IL-18 was passed over this captured surface at concentrations between 16-0.0625 nM, with 0 nM concentration (i.e., a buffer only injection of captured antibody) used for double referencing. Regeneration after each injection of IL-18 was by mild acidic elution using two injections of 10 mM glycine, pH1.5. […] The binding curves obtained were analysed using the analysis software inherent to the T100 machine using the 1:1 model of binding. Runs were carried out at the temperatures indicated.
(§2) This experiment was carried out using the above method at various temperatures. […] Table 5 details the kinetic values used to create these figures.

[4] = molecular target: T1, Human interleukin-18 (recombinant human …); experiment: SPR, Biacore T100, Protein A capture, 25 C, mean n = 4
Procedure: as §1
These experiments were carried out as described above. Table 6 details the kinetic parameters obtained. […] H1L2 has a better on-rate (ka) than H1L1.

[5] = molecular target: T2, Rhesus IL-18; experiment: Rhesus IL18 binding ELISA, antibody titrated, OD 490 nm
[6] = molecular target: T1, Human interleukin-18 (recombinant human …); experiment: cell-based or functional assay
[7] = molecular target: T1, Human interleukin-18 (recombinant human …); experiment: ELISA, antibody on plate, human IL-18 captured, detected by 16D10; 37 C, blocking buffer
Procedure: (§3) ELISA was carried out with the three Humanised H1 variants; H1L1, H1L2 and H1L3 to assess binding to human IL-18 at room temperature and at 37° C. in both human serum and in block solution (PBS 0.05% TWEEN with 1% BSA (w/v)). The Humanised antibody variants were immobilised on Nunc Maxisorp 96-well plates at 2.5 µg/ml. Capture of 5 ng/ml of recombinant human IL-18 was carried out either at room temperature or 37° C. in human serum or block solution. Anti-IL-18 mouse monoclonal antibody 16D10 was added. The bound mouse antibody was detected using anti-mouse kappa peroxidase conjugate (Serotec MCA 1291P). Representative EC50 values generated from the study data are illustrated in Table 9.

[8] = molecular target: T1, Human interleukin-18 (recombinant human …); experiment: SPR, Biacore T100, antibody captured on Protein A, 32 C
Procedure: as §1, §2

[9] = molecular target: T1, Human interleukin-18 (recombinant human …); experiment: ELISA, IL-18 bp-Fc coated at 0.5 ug/ml, human IL-18 added at 100 ng/ml, antibody titrated, detection anti-human kappa HRP, Abs 490 nm
[10] = molecular target: T1, Human interleukin-18 (recombinant human …); experiment: ELISA, antibody on plate, human IL-18 captured, detected by 16D10; 37 C, in serum
Procedure: as §3

- Kd [1]: 0.0303 nM
- Kd [2]: 0.108 nM
- Kd [3]: 0.0125 nM
- Kd [4]: 0.0163 nM
- EC50 (read off the curve) [5]: ~0.03 µg/mL
- % change vs 2C10 (IC50, KG-1 bioassay) [6]: 61.5%
- EC50 [7]: 3.4 ng/mL
- Kd [8]: 0.0189 nM
- EC50 (read off the curve) [9]: ~0.04 µg/mL
- EC50 [10]: 9.79 ng/mL
B1: H1L2 humanised anti-IL-18 antibody (antibody, human IgG1, kappa, V domains shown)
VH: QVQLVQSGAEVKKPGASVKVSCKVSGEISTGYYFHWVRQAPGKGLEWMGRIDPEDDSTKYAERFKDRVTMTEDTSTDTAYMELSSLRSEDTAVYYCTTWRIYRDSSGRPFYVMDAWGQGTLVTVSS
VL: DIQMTQSPSSVSASVGDRVTITCLASEDIYTYLTWYQQKPGKAPKLLIYGANKLQDGVPSRFSGSGSGTDYTLTISSLQPEDFATYYCLQGSKFPLTFGQGTKLEIKR
notes: Human IgG1 / kappa
